Drawing on the Immune Epitope Database (IEDB), this text covers Kd for eleven sequences.

A word on the Kd: it is the constant that tells how readily two partners part at equilibrium.

The target in one assay is HLA-A*02:01. The experiment in a line: IEDB peptide-MHC binding, purified MHC/direct/fluorescence; filed as Kd, often an IC50 or EC50 that approximates it; ≥ and ≤ were set here for values at or beyond the usual limits of such assays.
The next assay has as its target HLA-A*69:01. The assay is described as above.
The next assay has as its target HLA-C*03:03. The description is as above.
The target in assay [1] is HLA-B*44:02. In words: IEDB peptide-MHC binding, purified MHC/competitive/radioactivity; filed as Kd, often an IC50 or EC50 that approximates it; ≥ and ≤ were set here for values at or beyond the usual limits of such assays. As to conditions: source organism: Dengue virus 1 Brazil/97-11/1997.
The target in assay [2] is HLA-B*58:01. Described as above. Particulars: source organism: Dengue virus 1 Brazil/97-11/1997.
The target of the next assay is HLA-A*01:01. The experiment in a line: IEDB peptide-MHC binding, purified MHC/direct/fluorescence; filed as Kd, often an IC50 or EC50 that approximates it; ≥ and ≤ were set here for values at or beyond the usual limits of such assays.
Another assay concerns the target HLA-A*03:01. The assay is described as above.
The next assay deals with HLA-A*11:01. Described as above.
The target of assay [3] is HLA-A*24:03. Described as above.
The target of assay [4] is HLA-A*26:01. Described as above.
Another assay concerns the target HLA-A*30:01. The description is as above.
Another assay concerns the target HLA-A*31:01. The assay is described as above.
The target of the next assay is HLA-B*07:02. The description is as above.
For the next assay, the target named is HLA-B*08:01. Described as above.
In a further assay the target is HLA-B*15:01. Described as above.
Another assay addresses HLA-B*27:05. The assay is described as above.
The target in the next assay is HLA-B*40:01. The description is as above.
The target in assay [5] is HLA-B*44:02. The assay is described as above.
Assay [6] concerns the target HLA-B*58:01. Described as above.
Another assay deals with HLA-B*35:01. Described as above. As to conditions: source organism: Escherichia coli O157:H7.
Assay [7] addresses HLA-A*24:03. In words: IEDB peptide-MHC binding, purified MHC/competitive/fluorescence; filed as Kd, often an IC50 or EC50 that approximates it; ≥ and ≤ were set here for values at or beyond the usual limits of such assays. As to conditions: source organism: Bacillus anthracis str. A2012.
In another assay the target is HLA-B*18:01. The experiment in a line: IEDB peptide-MHC binding, purified MHC/direct/fluorescence; filed as Kd, often an IC50 or EC50 that approximates it; ≥ and ≤ were set here for values at or beyond the usual limits of such assays. As to conditions: source organism: West Nile virus.
The next assay addresses HLA-B*46:01. The description is as above. As to conditions: source organism: West Nile virus.
In a further assay the target is HLA-B*48:01. The assay is described as above. As to conditions: source organism: West Nile virus.
The target in a further assay is HLA-B*57:01. The assay is described as above. Particulars: source organism: West Nile virus.
The target in assay [8] is HLA-A*26:01. In words: IEDB peptide-MHC binding, purified MHC/competitive/fluorescence; filed as Kd, often an IC50 or EC50 that approximates it; ≥ and ≤ were set here for values at or beyond the usual limits of such assays. Particulars: source organism: West Nile virus.
For another assay, the target named is HLA-B*39:01. Described as above. As to conditions: source organism: West Nile virus.
The target in another assay is HLA-B*15:42. Described as above. As to conditions: source organism: Giardia lamblia ATCC 50803.
The next assay concerns the target HLA-B*45:06. The assay is described as above. As to conditions: source organism: Giardia lamblia ATCC 50803.
The target in a further assay is HLA-B*83:01. The description is as above. Particulars: source organism: Giardia lamblia ATCC 50803.
[9] abbreviates: source organism: Brucella abortus 2308.
Where [10] appears, read: source organism: Giardia lamblia ATCC 50803.
[11] abbreviates: source organism: Escherichia coli O157:H7.
The mark [12] stands for this setting: source organism: Yersinia pestis.
[13] abbreviates: source organism: Pseudomonas putida.
[14] abbreviates: source organism: Pseudomonas aeruginosa.
[15] abbreviates: source organism: West Nile virus.
[16] abbreviates: source organism: Yellow fever virus.

In the case of KQLEYSWVL, the values for the Kd with HLA-A*02:01 (setting [9]), with HLA-A*69:01 (setting [9]) and with HLA-C*03:03 (source organism: Brucella canis ATCC 23365) were 0.0017 µM, 0.846 µM and ≥ 20 µM, respectively.

For the sequence ERSWNSGYDW, the figures for the Kd in the assay with HLA-B*44:02 [1] and in the assay with HLA-B*58:01 [2] were 0.856 µM and 0.0956 µM, respectively.

Take TTIEDILPK: the dissociation constant (Kd) in the assay with HLA-A*01:01 (setting [10]) is ≥ 20 µM; in the assay with HLA-A*02:01 (setting [10]) it was ≥ 20 µM; with HLA-A*03:01 (setting [10]) it was 2.84 µM; with HLA-A*11:01 (setting [10]), 0.0092 µM; with HLA-A*24:03 [3] (setting [10]), ≥ 20 µM; in the assay with HLA-A*26:01 [4] (setting [10]), 0.478 µM. For the same sequence, the Kd in the assay with HLA-A*30:01 (setting [10]) is 0.471 µM; in the assay with HLA-A*31:01 (setting [10]), 2.09 µM; in the assay with HLA-A*69:01 (setting [10]), ≥ 20 µM; in the assay with HLA-B*07:02 (setting [10]), ≥ 20 µM; in the assay with HLA-B*08:01 (setting [10]), ≥ 20 µM; with HLA-B*15:01 (setting [10]) it was ≥ 20 µM. In addition, the equilibrium dissociation constant (Kd) with HLA-B*27:05 (setting [10]), with HLA-B*40:01 (setting [10]), in the assay with HLA-B*44:02 [5] (setting [10]) and with HLA-B*58:01 [6] (setting [10]) was ≥ 20 µM throughout.

With ITAGYNRYY, the dissociation constant Kd with HLA-A*01:01 (setting [11]) was 0.535 µM; in the assay with HLA-A*02:01 (setting [11]), ≥ 20 µM; with HLA-A*03:01 (setting [11]), 3.25 µM; with HLA-A*11:01 (setting [11]) it was 2.56 µM; in the assay with HLA-A*24:03 [3] (setting [11]), ≥ 20 µM; with HLA-A*26:01 [4] (setting [11]) it was 0.205 µM. The Kd with HLA-A*30:01 (setting [11]) was 2.13 µM; with HLA-A*31:01 (setting [11]) it was ≥ 20 µM; with HLA-A*69:01 (setting [11]), ≥ 20 µM; in the assay with HLA-B*07:02 (setting [11]), ≥ 20 µM; with HLA-B*08:01 (setting [11]), ≥ 20 µM; with HLA-B*15:01 (setting [11]), 0.108 µM. Also, the dissociation constant Kd was ≥ 20 µM with HLA-B*27:05 (setting [11]); 0.861 µM with HLA-B*35:01; ≥ 20 µM with HLA-B*40:01 (setting [11]); ≥ 20 µM with HLA-B*44:02 [5] (setting [11]); 4.05 µM with HLA-B*58:01 [6] (setting [11]).

Regarding FFSPVIASL, the Kd with HLA-C*03:03 (source organism: Bacillus anthracis str. A2012) was ≤ 0.001 µM; with HLA-A*24:03 [7], ≤ 0.0001 µM.

For YGLGSTPLY, the Kd with HLA-A*01:01 (setting [12]) is 14.1 µM; with HLA-A*02:01 (setting [12]), ≥ 20 µM; in the assay with HLA-A*03:01 (setting [12]), ≥ 20 µM; with HLA-A*11:01 (setting [12]) it was ≥ 20 µM; in the assay with HLA-A*26:01 [4] (setting [12]), 5.87 µM; with HLA-A*30:01 (setting [12]), 3.59 µM. The dissociation constant Kd was ≥ 20 µM in the assay with HLA-A*31:01 (setting [12]); ≥ 20 µM in the assay with HLA-A*69:01 (setting [12]); ≥ 20 µM in the assay with HLA-B*07:02 (setting [12]); ≥ 20 µM in the assay with HLA-B*08:01 (setting [12]); 0.332 µM with HLA-B*15:01 (setting [12]); ≥ 20 µM in the assay with HLA-B*27:05 (setting [12]). Further, the Kd was ≥ 20 µM in the assay with HLA-B*40:01 (setting [12]), ≥ 20 µM with HLA-B*44:02 [5] (setting [12]) and 10.4 µM with HLA-B*58:01 [6] (setting [12]).

For the sequence NWDWGVFFK, the Kd in the assay with HLA-A*01:01 (setting [13]) is ≥ 20 µM; in the assay with HLA-A*02:01 (setting [13]), ≥ 20 µM; with HLA-A*03:01 (setting [13]), ≥ 20 µM; with HLA-A*11:01 (setting [14]) it was 0.0673 µM; in the assay with HLA-A*24:03 [3] (setting [13]), ≥ 20 µM; in the assay with HLA-A*26:01 [4] (setting [13]) it was ≥ 20 µM. Further, the Kd was 2.1 µM in the assay with HLA-A*30:01 (setting [14]); ≥ 20 µM with HLA-A*69:01 (setting [13]); ≥ 20 µM in the assay with HLA-B*07:02 (setting [13]); ≥ 20 µM in the assay with HLA-B*08:01 (setting [13]); ≥ 20 µM in the assay with HLA-B*15:01 (setting [13]); ≥ 20 µM in the assay with HLA-B*27:05 (setting [13]). The Kd with HLA-B*40:01 (setting [13]) and with HLA-B*58:01 [6] (setting [13]) was ≥ 20 µM throughout.

LYAVTTAVL: the Kd with HLA-A*01:01 (setting [15]), with HLA-A*03:01 (setting [15]), in the assay with HLA-A*30:01 (source organism: West Nile virus strain PTRoxo), with HLA-A*31:01 (setting [15]), with HLA-A*69:01 (setting [15]) and with HLA-B*15:01 (setting [15]) was ≥ 20 µM each time. Also, the dissociation constant Kd in the assay with HLA-B*18:01, with HLA-B*27:05 (setting [15]), in the assay with HLA-B*40:01 (setting [15]), in the assay with HLA-B*44:02 [5] (setting [15]), with HLA-B*46:01 and with HLA-B*48:01 was ≥ 20 µM throughout. Also, the Kd was ≥ 20 µM with HLA-B*57:01, ≥ 20 µM with HLA-B*58:01 [6] (setting [15]), ≥ 20 µM with HLA-A*26:01 [8] and 0.459 µM in the assay with HLA-B*39:01.

Consider YLIIGILTL, for which the dissociation constant (Kd) was ≥ 20 µM in the assay with HLA-A*69:01 (setting [16]) and 0.018 µM with HLA-C*03:03 (setting [16]).

For the sequence AEFPVGSTA, the equilibrium dissociation constant (Kd) with HLA-A*01:01 (setting [10]), with HLA-A*03:01 (setting [10]), in the assay with HLA-A*11:01 (setting [10]), with HLA-A*26:01 [4] (setting [10]), with HLA-A*31:01 (setting [10]) and with HLA-A*69:01 (setting [10]) was ≥ 20 µM throughout. The dissociation constant Kd in the assay with HLA-B*07:02 (setting [10]) is ≥ 20 µM; with HLA-B*08:01 (setting [10]), ≥ 20 µM; in the assay with HLA-B*15:01 (setting [10]), ≥ 20 µM; with HLA-B*27:05 (setting [10]), ≥ 20 µM; with HLA-B*40:01 (setting [10]), 0.41 µM; in the assay with HLA-B*44:02 [5] (setting [10]) it was ≥ 20 µM. The dissociation constant (Kd) in the assay with HLA-B*58:01 [6] (setting [10]) is ≥ 20 µM; with HLA-B*15:42, ≥ 5 µM; with HLA-B*45:06, ≥ 5 µM; with HLA-B*83:01 it was ≥ 5 µM.

In the case of FAKPAGTPM, in the assay with HLA-C*03:03 (source organism: Burkholderia cenocepacia HI2424), the dissociation constant (Kd) was ≤ 0.001 µM.
